Test results: the Immune Epitope Database (IEDB)

Key:
HLA-B*15:02 = test: IEDB peptide-MHC binding, purified MHC/direct/fluorescence; filed as Kd, often an IC50 or EC50 that approximates it; ≥ and ≤ were set here for values at or beyond the usual limits of such assays; details: source organism: Yersinia enterocolitica subsp. enterocolitica 8081
HLA-A*31:01 = test: as above
HLA-A*02:01 = test: as above; details: source organism: Yersinia pestis
HLA-B*40:01 = test: as above
HLA-A*26:01 = test: as above; details: source organism: Yersinia pestis
HLA-A*11:01 = test: as above
HLA-B*27:05 [1] = test: as above
HLA-A*69:01 = test: as above; details: source organism: Yersinia pestis
HLA-B*46:01 [2] = test: as above
HLA-B*07:02 = test: as above; details: source organism: Yersinia pestis
HLA-B*08:01 = test: as above; details: source organism: Yersinia pestis
HLA-B*15:01 = test: as above
HLA-B*58:01 = test: as above
HLA-A*03:01 = test: as above
HLA-B*27:05 [3] = test: IEDB peptide-MHC binding, purified MHC/competitive/fluorescence; ≥ and ≤ were set here for values at or beyond the usual limits of such assays; details: source organism: Homo sapiens
HLA-C*04:01 = test: IEDB peptide-MHC binding, purified MHC/direct/fluorescence; filed as Kd, often an IC50 or EC50 that approximates it; ≥ and ≤ were set here for values at or beyond the usual limits of such assays; details: source organism: Influenza A virus (A/turkey/Ohio/313053/2004(H3N2))
HLA-A*24:02 = test: IEDB peptide-MHC binding, purified MHC/competitive/fluorescence; filed as Kd, often an IC50 or EC50 that approximates it; ≥ and ≤ were set here for values at or beyond the usual limits of such assays; details: source organism: Influenza A virus (A/turkey/Ohio/313053/2004(H3N2))
HLA-A*29:02 = test: IEDB peptide-MHC binding, purified MHC/direct/fluorescence; filed as Kd, often an IC50 or EC50 that approximates it; ≥ and ≤ were set here for values at or beyond the usual limits of such assays; details: source organism: West Nile virus
HLA-B*57:01 = test: as above; details: source organism: West Nile virus
HLA-B*48:01 = test: as above; details: source organism: West Nile virus
HLA-B*18:01 = test: as above; details: source organism: West Nile virus
HLA-B*44:02 = test: as above; details: source organism: West Nile virus
HLA-B*15:09 = test: as above; details: source organism: West Nile virus strain PTRoxo
HLA-B*39:01 = test: as above; details: source organism: West Nile virus
HLA-C*05:01 = test: as above; details: source organism: West Nile virus
HLA-B*83:01 = test: IEDB peptide-MHC binding, purified MHC/competitive/fluorescence; filed as Kd, often an IC50 or EC50 that approximates it; ≥ and ≤ were set here for values at or beyond the usual limits of such assays
HLA-B*45:06 = test: as above
HLA-B*15:42 = test: as above
HLA-A*68:23 = test: as above; details: source organism: Mycobacterium tuberculosis variant bovis BCG str. Pasteur 1173P2
HLA-B*08:02 = test: IEDB peptide-MHC binding, purified MHC/direct/fluorescence; filed as Kd, often an IC50 or EC50 that approximates it; ≥ and ≤ were set here for values at or beyond the usual limits of such assays; details: source organism: Campylobacter jejuni subsp. jejuni 81116
HLA-C*06:02 = test: as above; details: source organism: Campylobacter jejuni subsp. jejuni NCTC 11168 = ATCC 700819
HLA-B*40:13 = test: IEDB peptide-MHC binding, purified MHC/competitive/fluorescence; filed as Kd, often an IC50 or EC50 that approximates it; ≥ and ≤ were set here for values at or beyond the usual limits of such assays; details: source organism: Campylobacter jejuni subsp. jejuni NCTC 11168 = ATCC 700819
HLA-A*32:07 = test: as above; details: source organism: Campylobacter jejuni subsp. jejuni NCTC 11168 = ATCC 700819
HLA-B*46:01 [4] = test: as above; details: source organism: Campylobacter jejuni subsp. jejuni NCTC 11168 = ATCC 700819
[5] = source organism: Yersinia pestis
[6] = source organism: West Nile virus
[7] = source organism: Mycobacterium tuberculosis variant bovis BCG str. Pasteur 1173P2
[8] = source organism: Campylobacter jejuni subsp. jejuni NCTC 11168 = ATCC 700819

For RQLESRLGY, the Kd (HLA-B*15:02) was 0.077 µM, the Kd (HLA-A*31:01; [5]) was 0.288 µM and the Kd (HLA-A*02:01) was at least 20 µM. The Kd (HLA-B*40:01; [5]) was 3.74 µM, the Kd (HLA-A*26:01) was at least 20 µM and the Kd (HLA-A*11:01; [5]) was 0.13 µM. For the same sequence, the Kd (HLA-B*27:05 [1]; [5]) was 0.0656 µM, the Kd (HLA-A*69:01) was at least 20 µM and the Kd (HLA-B*46:01 [2]; [5]) was at least 20 µM. For the same sequence, the Kd (HLA-B*07:02) was at least 20 µM, the Kd (HLA-B*08:01) was at least 20 µM and the Kd (HLA-B*15:01; [5]) was 0.146 µM. It also gave a Kd (HLA-B*58:01; [5]) of at least 20 µM and a Kd (HLA-A*03:01; [5]) of 0.0616 µM.
RRFFPYYV was tested, and the IC50 (HLA-B*27:05 [3]) was 3.2 µM.
RYSGFVRTL was tested, and the Kd (HLA-C*04:01) was at least 20 µM and the Kd (HLA-A*24:02) was 0.0011 µM.
For TSDYINTSL, the Kd (HLA-A*31:01; [6]) was at least 20 µM, the Kd (HLA-B*40:01; [6]) was at least 20 µM and the Kd (HLA-A*29:02) was at least 20 µM. The Kd (HLA-A*11:01; [6]) was at least 20 µM, the Kd (HLA-B*57:01) was at least 20 µM and the Kd (HLA-B*27:05 [1]; [6]) was at least 20 µM. It also gave a Kd (HLA-B*48:01) of at least 20 µM, a Kd (HLA-B*18:01) of at least 20 µM and a Kd (HLA-B*46:01 [2]; [6]) of at least 20 µM. The Kd (HLA-B*44:02) was at least 20 µM, the Kd (HLA-B*15:09) was at least 5 µM and the Kd (HLA-B*39:01) was 1.48 µM. For the same sequence, the Kd (HLA-B*15:01; [6]) was at least 20 µM, the Kd (HLA-C*05:01) was 0.21 µM and the Kd (HLA-B*58:01; [6]) was at least 20 µM. It also gave a Kd (HLA-A*03:01; [6]) of at least 20 µM.
TTFDLTLRR was tested, and the Kd (HLA-B*83:01; [7]) was at least 5 µM, the Kd (HLA-B*45:06; [7]) was at least 5 µM and the Kd (HLA-B*15:42; [7]) was at least 5 µM. The Kd (HLA-A*68:23) was 0.0121 µM.
In the case of YMKKRYEEF, the Kd (HLA-B*08:02) is reported as 0.127 µM, the Kd (HLA-C*06:02) is reported as at least 20 µM and the Kd (HLA-B*83:01; [8]) is reported as at least 5 µM. For the same sequence, the Kd (HLA-B*40:13) was 0.326 µM, the Kd (HLA-B*45:06; [8]) was at least 5 µM and the Kd (HLA-A*32:07) was 0.232 µM. For the same sequence, the Kd (HLA-B*46:01 [4]) was 0.188 µM and the Kd (HLA-B*15:42; [8]) was at least 5 µM.
